18 variants from the RNAGym collection of RNA variant scans (doi:10.1021/acssynbio.7b00057) can be followed below.

B1: Pistol ribozyme (parent)
chain: GGGUCGUUGUUCCAUAAUCGCGUGGAUAUGGCACGCAAGUUUCUACCGGGCACCGUAAAUGUCCGACUGGAGCCGUUCGGGCGGCUAUAAACAGACCUCAGGCCCGAAGCGUGGCGGCACCUGCCGCCGGUGGUAAAAAAGAUCGGAAGAGCACACGUCU

In the data set the parent is B1. Description: aptazyme ON/OFF ratio, guanine; higher = stronger switching; co-transcriptional cleavage with and without guanine.
Consider GGGUCGCUAACCAAUAAUCGCGUGGAUAUGGCACGCAAGUUUCUACCGGGCACCGUAAAUGUCCGACUGGAGCCGUUCGGGCGGCUAUAAACAGACCUCAGGCCCGAAGCGUGGCGGCACCUGCCGCCGGUGGUAAAAAAGAUCGGAAGAGCACACGUCU, for which the “aptazyme ON/OFF ratio” value stood at 1.03.

Regarding GGGUCGCUAACCUAUAAUCGCGUGGAUAUGGCACGCAAGUUUCUACCGGGCACCGUAAAUGUCCGACUGGAGCCGUUCGGGCGGCUAUAAACAGACCUCAGGCCCGAAGCGUGGCGGCACCUGCCGCCGGUGGUAAAAAAGAUCGGAAGAGCACACGUCU, the “aptazyme ON/OFF ratio” value is 1.07.

Turning to GGGUCGCUAACCGAUAAUCGCGUGGAUAUGGCACGCAAGUUUCUACCGGGCACCGUAAAUGUCCGACUGGAGCCGUUCGGGCGGCUAUAAACAGACCUCAGGCCCGAAGCGUGGCGGCACCUGCCGCCGGUGGUAAAAAAGAUCGGAAGAGCACACGUCU, the “aptazyme ON/OFF ratio” value amounted to 1.04.

Regarding GGGUCGCUAAGGGAUAAUCGCGUGGAUAUGGCACGCAAGUUUCUACCGGGCACCGUAAAUGUCCGACUGGAGCCGUUCGGGCGGCUAUAAACAGACCUCAGGCCCGAAGCGUGGCGGCACCUGCCGCCGGUGGUAAAAAAGAUCGGAAGAGCACACGUCU, the “aptazyme ON/OFF ratio” value was found to be 1.08.

With GGGUCGCUAAGGUAUAAUCGCGUGGAUAUGGCACGCAAGUUUCUACCGGGCACCGUAAAUGUCCGACUGGAGCCGUUCGGGCGGCUAUAAACAGACCUCAGGCCCGAAGCGUGGCGGCACCUGCCGCCGGUGGUAAAAAAGAUCGGAAGAGCACACGUCU, the “aptazyme ON/OFF ratio” value was determined as 1.11.

As for GGGUCGCUAAGGAAUAAUCGCGUGGAUAUGGCACGCAAGUUUCUACCGGGCACCGUAAAUGUCCGACUGGAGCCGUUCGGGCGGCUAUAAACAGACCUCAGGCCCGAAGCGUGGCGGCACCUGCCGCCGGUGGUAAAAAAGAUCGGAAGAGCACACGUCU, the “aptazyme ON/OFF ratio” value was found to be 1.12.

Take GGGUCGCUAAGUAAUAAUCGCGUGGAUAUGGCACGCAAGUUUCUACCGGGCACCGUAAAUGUCCGACUGGAGCCGUUCGGGCGGCUAUAAACAGACCUCAGGCCCGAAGCGUGGCGGCACCUGCCGCCGGUGGUAAAAAAGAUCGGAAGAGCACACGUCU: the “aptazyme ON/OFF ratio” value was determined as 1.16.

On to GGGUCGCUAAGUUAUAAUCGCGUGGAUAUGGCACGCAAGUUUCUACCGGGCACCGUAAAUGUCCGACUGGAGCCGUUCGGGCGGCUAUAAACAGACCUCAGGCCCGAAGCGUGGCGGCACCUGCCGCCGGUGGUAAAAAAGAUCGGAAGAGCACACGUCU, for which the “aptazyme ON/OFF ratio” value is 1.27.

As for GGGUCGCUAAGUGAUAAUCGCGUGGAUAUGGCACGCAAGUUUCUACCGGGCACCGUAAAUGUCCGACUGGAGCCGUUCGGGCGGCUAUAAACAGACCUCAGGCCCGAAGCGUGGCGGCACCUGCCGCCGGUGGUAAAAAAGAUCGGAAGAGCACACGUCU, the “aptazyme ON/OFF ratio” value was 1.13.

As to GGGUCGCUAACUCAUAAUCGCGUGGAUAUGGCACGCAAGUUUCUACCGGGCACCGUAAAUGUCCGACUGGAGCCGUUCGGGCGGCUAUAAACAGACCUCAGGCCCGAAGCGUGGCGGCACCUGCCGCCGGUGGUAAAAAAGAUCGGAAGAGCACACGUCU, the “aptazyme ON/OFF ratio” value is 1.07.

Turning to GGGUCGCUAACACAUAAUCGCGUGGAUAUGGCACGCAAGUUUCUACCGGGCACCGUAAAUGUCCGACUGGAGCCGUUCGGGCGGCUAUAAACAGACCUCAGGCCCGAAGCGUGGCGGCACCUGCCGCCGGUGGUAAAAAAGAUCGGAAGAGCACACGUCU, the “aptazyme ON/OFF ratio” value came out at 1.13.

For GGGUCGCUAACGCAUAAUCGCGUGGAUAUGGCACGCAAGUUUCUACCGGGCACCGUAAAUGUCCGACUGGAGCCGUUCGGGCGGCUAUAAACAGACCUCAGGCCCGAAGCGUGGCGGCACCUGCCGCCGGUGGUAAAAAAGAUCGGAAGAGCACACGUCU, the “aptazyme ON/OFF ratio” value was 1.35.

For GGGUCGCUAAGCAAUAAUCGCGUGGAUAUGGCACGCAAGUUUCUACCGGGCACCGUAAAUGUCCGACUGGAGCCGUUCGGGCGGCUAUAAACAGACCUCAGGCCCGAAGCGUGGCGGCACCUGCCGCCGGUGGUAAAAAAGAUCGGAAGAGCACACGUCU, the “aptazyme ON/OFF ratio” value is 1.07.

For the variant GGGUCGCUAAGCGAUAAUCGCGUGGAUAUGGCACGCAAGUUUCUACCGGGCACCGUAAAUGUCCGACUGGAGCCGUUCGGGCGGCUAUAAACAGACCUCAGGCCCGAAGCGUGGCGGCACCUGCCGCCGGUGGUAAAAAAGAUCGGAAGAGCACACGUCU, the “aptazyme ON/OFF ratio” value turned out to be 1.02.

As for GGGUCGCUAAGCUAUAAUCGCGUGGAUAUGGCACGCAAGUUUCUACCGGGCACCGUAAAUGUCCGACUGGAGCCGUUCGGGCGGCUAUAAACAGACCUCAGGCCCGAAGCGUGGCGGCACCUGCCGCCGGUGGUAAAAAAGAUCGGAAGAGCACACGUCU, the “aptazyme ON/OFF ratio” value is 1.25.

Regarding GGGUCGCUAAGGCAUAAUCGCGUGGAUAUGGCACGCAAGUUUCUACCGGGCACCGUAAAUGUCCGACUGGAGCCGUUCGGGCGGCUAUAAACAGACCUCAGGCCCGAAGCGUGGCGGCACCUGCCGCCGGUGGUAAAAAAGAUCGGAAGAGCACACGUCU, the “aptazyme ON/OFF ratio” value worked out at 1.15.

GGGUCGCUAAGACAUAAUCGCGUGGAUAUGGCACGCAAGUUUCUACCGGGCACCGUAAAUGUCCGACUGGAGCCGUUCGGGCGGCUAUAAACAGACCUCAGGCCCGAAGCGUGGCGGCACCUGCCGCCGGUGGUAAAAAAGAUCGGAAGAGCACACGUCU: the “aptazyme ON/OFF ratio” value came out at 1.02.

Regarding GGGUCGCUAAGUCAUAAUCGCGUGGAUAUGGCACGCAAGUUUCUACCGGGCACCGUAAAUGUCCGACUGGAGCCGUUCGGGCGGCUAUAAACAGACCUCAGGCCCGAAGCGUGGCGGCACCUGCCGCCGGUGGUAAAAAAGAUCGGAAGAGCACACGUCU, the “aptazyme ON/OFF ratio” value came out at 1.31.
